Data as given in the DeepSol protein solubility set.

Assay: soluble on expression in E. coli; label from the status in PepcDB or PDB records
With “MGSDKIHHHHHHMDSRDMQAIGLCRFSYPAIGGFQVEHETIEERISYLYAEDRLEERFQLLETVALPCLREQTDQNFELIVVIGDTLPKRHGDRLHDLTSDMPQVRIVVEPPRPQRELMKELLNSARTDPSKPCLQFRYDDDDAVSVDFIERFRNALNDCRGLVTTNRTVAVDFNRGYVAELGADGIAATETVRTLYVASLGMYVKGGCRLTIMNFAHEKIGRFMPVISISDVPMWVRSHNGFNDSRQKKVKPVPVVPLTEDQKAEFAARFAIREDHVKRVFSGG” the “soluble on expression in E. coli” value was “not soluble”.
With “MGSDKIHHHHHHMDTLIRRYKRLLTATSTTYIRSLMDTINWDNRLIAIRGARGVGKTTLMLQYLKLHYANDSQSALYTSLDSLYFTQHTLSELAEQFYLKGGKCLFLDEVHKYPSWSKEIKNIYDEFPELKIVFTGSSLLQLLNAEADLSRRCISYNMQGLSYREYLKLFHQIHIRPYTLEEILESSDGICNEVNSQCRPLAHFEDYLKHGYYPFYLEGNAEYYTRIENITNLILEIELPQQCGVDISNVRKLKSLLGILSSEVPFMVDITKLSALAELSRTTILAYLQYLDRAKLIHLLYSDNDSIKKLQKPDKIYMENTNLLYALTFKDVNKGTLREVFMVNQLSYLHRVEYCTRSADYTIDSKYTIEVGGKSKDGKQIAGSKKAFIAADDIEYSAGNKIPLWAFGFLY” the “soluble on expression in E. coli” value was “not soluble”.
For “MGSDKIHHHHHHMDTQAFKQTLHKSDRYNRRGFGSANKRAQALAEAYQSGLIGSIRENGNLLEHGRLKVKLAEAFGFCWGVERSVAMAYETRKHYPNERIWITNEIIHNPSVNDHLRKMNVLFISEEKGVKDFSVVKDGDVVILPAFGATVQDMKLLHDRGCHIIDTTCPWVSKVWHTVEKHKKHTFTSIIHGKYKHEETLATSSFAGTYLVLFDLEEANYVSDYILGKGNREDFLKRFSKASSAGFDPDKDLQKVGVANQTTMLKSETEEIGRLFEKTMLQRFGPAQLNEHFLAINTICDATEERQGAMFSLVDEPLDLMVVIGGFNSSNTTHLQEIAISRGIRSFHIDTPERIGEETNTITHMPLEGGELLTEENFLQNGNISVGITSGASTPDRVVEDVIHKLMKIGENF”, the “soluble on expression in E. coli” value was “not soluble”.
With “MGSDKIHHHHHHMDTRIRDFVKTNECYFAVNTYYHPENSVISFLRYINIDKIGNHLLKDYELDENDIRILNGERFIKVADSSKAYAILKEYYPEYLFYDEINDVLLHAVPKTNIKEILSPQKRLEEVLNEQNTEAEIKCAKLADTLHDYGLEYKNMGVSGSTVLKLNNENSDIDFVIYGMEKHKIAREILSVTFKDGVLEPLSEDFWKKAYVKRIKDGTLTYDEFVWHEKRKLNRGVVDGVMFDLLATREWDEITENYGDKKYKNLGFIQIKAKVKDDTFVFDNPAVYKVENVEILNNENNAEVLASEIEEVVSFTHTYAGSTYNGEEIIVRGKLEEVSGKETYKRVVVGTTREAFNEYVKLAK” the “soluble on expression in E. coli” value was “not soluble”.
With “MGSDKIHHHHHHMDVIDAVNRRMSVRAFKPDPVDAGLIRDLLEAAARAPSGGNLQPWRVQVVGGAPLEALKAAMLQRVASPDPTEYDVYPANLWEPLRSRRFQVGEDMYGALGIPREDKLQRLQWFANNGQGFGAPVQLFFSIDRRCGPPQWSDVGMLMQTFMLLAVERGLDTCPQEFWSHYNKLVDEHVGLPEGHMLFSGMALGYRDADAPVNNFRSRRAPFEEWAELKGF” the “soluble on expression in E. coli” value was “not soluble”.
In the case of “MGSDKIHHHHHHMDVSIDSGKKKIIPFIQSGDYFFRRGVIAFRKNHLSRAVKLLERAVKLTEQEPVFHIQLAAVLSELGHYERSNDILESVVQNLDPGHSECHFFMANNYAYLGLFEKAEHCAIAYLSDQPDGEFAKDAHDLLDLLRFEKEEEGDEWENELTPTDQFLLEHEKACQLLEEGHLQEAIVLLEKLMDEEPSYWTAYNQYAQALFRLGNVEKAFEVCEHILEEDQGNLFALCNMALFYKKQGQQQQAESLIQALSAVHPMDRAHRFKVAQVLCAVGAYEQAYDRLKELEWTSISSDPEWHFCIGVAAYHLGQEEIALRYWKKAATLGVQQAADYYAMSIVDILQKEDVTYEGWHVKQKSRQNS”, the “soluble on expression in E. coli” value is reported as “not soluble”.
With “MGSDKIHHHHHHMEALLQLKGIDKAFPGVKALSGAALNVYPGRVMALVGENGAGKSTMMKVLTGIYTRDAGTLLWLGKETTFTGPKSSQEAGIGIIHQELNLIPQLTIAENIFLGREFVNRFGKIDWKTMYAEADKLLAKLNLRFKSDKLVGDLSIGDQQMVEIAKVLSFESKVIIMDEPTDALTDTETESLFRVIRELKSQGRGIVYISHRMKEIFEICDDVTVFRDGQFIAEREVASLTEDSLIEMMVGRKLEDQYPHLDKAPGDIRLKVDNLCGPGVNDVSFTLRKGEILGVSGLMGAGRTELMKVLYGALPRTSGYVTLDGHEVVTRSPQDGLANGIVYISEDRKRDGLVLGMSVKENMSLTALRYFSRAGGSLKHADEQQAVSDFIRLFNVKTPSMEQAIGLLSGGNQQKVAIARGLMTRPKVLILDEPTRGVDVGAKKEIYQLINQFKADGLSIILVSSEMPEVLGMSDRIIVMHEGHLSGEFTREQATQEVLMAAAVGKLNRVNQE” the “soluble on expression in E. coli” value was “not soluble”.
For “MGSDKIHHHHHHMEHGTESFWTDIKRYEDILAKDPGSYCFAPLSELYRKVGLLDDAIMTARTGIGQHPEYVGGYMALGRACFEKGERTESRAALEKVVRVTPDNLLAQKLLSQIYVDAGESDLARRCLEIILSLSPGDLESKLMLDAMCRQPRENADRADDLFNEMGAAAAIDLEDESLLEEIEIIEELVDEVVDEEDLAAFTAHAPPPPLAEESFADVLLDEEPVANADVPSPRDVLSTGTVADLYIAQGFPKKALAIYRDLLDADPLNEDIRNRMVDLKKRIDEDEARARESVLAEAVSATDTTAQIQGDLTADREAFKEEAASGFAVESAHEVDIPLEVAVSAESSLNVAEEKEASAAHVVSALEGWLDSIRRIRQCRSVLH”, the “soluble on expression in E. coli” value was “not soluble”.
With “MGSDKIHHHHHHMEIELKTLGNYKAILGESPVYDREGNRLFWVDIDGKKVIVNNLDTNEEKYYDTPDLVTSLCLIDYKRIIVTLRHGFHTLNLTTGEITPYLELENNGENRFNDGKCDIRDRYWAGTMNLHIENPKPTASLYKLEGQRLTKVLDKLYRSNGLGWDPDNKLFYLIDTPLRKVFQFDFDKDKGDIYNKRIVMDFKYEPGRPDGMTIDEEGYLWIAHSAGGKVSRWNPKNGEKVSEIKLPVLYVSSVTFGSPEMNQIFITTMSKGGEPLAGRLFTAKMNIKGLQSYKFLT” the “soluble on expression in E. coli” value was “not soluble”.
For “MGSDKIHHHHHHMEIFGKTFREGRFVLKEKNFTVEFAVEKIHLGWKISGRVKGSPGRLEVLRTKAPEKVLVNNWQSWGPCRVVDAFSFKPPEIDPNWRYTASVVPDVLERNLQSDYFVAEEGKVYGFLSSKIAHPFFAVEDGELVAYLEYFDVEFDDFVPLEPLVVLEDPNTPLLLEKYAELVGMENNARVPKHTPTGWCSWYHYFLDLTWEETLKNLKLAKNFPFEVFQIDDAYEKDIGDWLVTRGDFPSVEEMAKVIAENGFIPGIWTAPFSVSETSDVFNEHPDWVVKENGEPKMAYRNWNKKIYALDLSKDEVLNWLFDLFSSLRKMGYRYFKIDFLFAGAVPGERKKNITPIQAFRKGIETIRKAVGEDSFILGCGSPLLPAVGCVDGMRIGPDTAPFWGEHIEDNGAPAARWALRNAITRYFMHDRFWLNDPDCLILREEKTDLTQKEKELYSYTCGVLDNMIIESDDLSLVRDHGKKVLKETLELLGGRPRVQNIMSEDLRYEIVSSGTLSGNVKIVVDLNSREYHLEKEGKSSLKKRVVKREDGRNFYFYEEGERE”, the “soluble on expression in E. coli” value was “soluble”.
For “MGSDKIHHHHHHMEIIAGYRTTSDSRYIALIKADGNNAGKIFGNTVTFSEYVDKSFRLDFGVKKMFYDTLLDIMRASSDESIKKDLVSRILLGVLYLGGDDIMLLSPSAIAVPFAVKMFKRSLEYTGFTFKVGIISVKPDHPVQFAYGAVNALMEESKIHTGEKSSIGVLVFSSTLASEGVVKSDLKNYRKEKESFLVVSNDVDDVERLLNLMELDDFGKLMELYWNPEEGRKVIRDKIRSLERFVNYADTHDFYNTLAYLIRSKAKSEENSLIKRIIDLTIKGRDDFVFPLYDYYFILKSIRVGI”, the “soluble on expression in E. coli” value was “not soluble”.
With “MGSDKIHHHHHHMEIKEMVSLARKAQKEYQATHNQEAVDNICRAAAKVIYENAAILAREAVDETGMGVYEHKVAKNQGKSKGVWYNLHNKKSIGILNIDERTGMIEIAKPIGVVGAVTPTTNPIVTPMSNIIFALKTCNAIIIAPHPRSKKCSAHAVRLIKEAIAPFNVPEGMVQIIEEPSIEKTQELMGAVDVVVATGGMGMVKSAYSSGKPSFGVGAGNVQVIVDSNIDFEAAAEKIITGRAFDNGIICSGEQSIIYNEADKEAVFTAFRNHGAYFCDEAEGDRARAAIFENGAIAKDVVGQSVAFIAKKANINIPEGTRILVVEARGVGAEDVICKEKMCPVMCALSYKHFEEGVEIARTNLANEGNGHTCAIHSNNQAHIILAGSELTVSRIVVNAPSATTAGGHIQNGLAVTNTLGCGSWGNNSISENFTYKHLLNISRIAPLNSSIHIPDDKEIWEL” the “soluble on expression in E. coli” value was “not soluble”.
For “MGSDKIHHHHHHMEKMTFGLIVGNREFFPDRLVEEGRERVIKVLEGMGYRVVTLSPSDTKLGAVETAKDAKKCAELFKEKAGEIDGIIVTLPNFGDEKGVAQAIRLSGLNVPVLVHAFPDDPEKLDLQNRRDSFCGKISVSNNLKQYGIEFSLTTLHTEDPESEVFKRDIEKFAAVCRIVKGMRNIKVGAIGARPSAFNTVRFSEKILERMSISVETVDLSEILHRVSNLKDDDERVRRKLEEIKKNYRLQIVPEEKILLMAKFGSVIDEWIEENDIKALAIQCWTSLEWNLGITPCTIMSLLNEKGKPAACEVDITGALSMYVLQLASGQPSAIVDWNNNYRDENETILFHCGNFPASIYEEKPEIKYADVIGTTVGKERAYGACAGKIKTSPFTFLRLTTDDNEGKVKAYVGEGQILDENPKTFGSRGVARIEKLQELMKYICENGFEHHVAINLSRVADAVKEALEKYLGIVVHKHNAEV”, the “soluble on expression in E. coli” value was “not soluble”.
For “MGSDKIHHHHHHMEKTAIRIPIFMYSLLTPAWEHKIEAQTDGDPFGDSQPMKEYYGPNGKWLLDGVLRHLNISREDEIAILTTSDERYVSTCVSITCFNYAKISRVVGPNTKVVIVIHEFGYVYPDIKNYVCNLKERGIVVIEDCAHIIGCDINGKKIGSFGDYALFSLPKISPARAGGLLRTTKNIKLPVLNSNLSQLTNIGIAGAEKYLPKYKFFNKGRIERAELLKSQVNDLCNIFEPSHPAVPYFLGIVTSEKSKIETSLPWIEFGATLRNDLVYIPTNPLASINLFELITNTIKNGGKICN”, the “soluble on expression in E. coli” value was “not soluble”.
With “MGSDKIHHHHHHMELGTPIAEGNTAKIYLVENRVVKVFKGHLPDTEAANEARKQKYAHSCGLSVPEIFDVTEVNGKQAIMMEYINGKTMGEILFENKEQAEYYMSISVGIQHQIHSKVADSLEPMSEKLSRQIKAAPGLSNNQRSALLKRLETLSIDNRLCHGDFHLYNLIKTNNKVTIIDWVDASVGDMCADICRTYLLYSQFSAELADMYLHLSCKKRGLSQADIFQWAPIIAGARLSETVISEKAERLIEIVKHHFPR” the “soluble on expression in E. coli” value was “not soluble”.
With “MGSDKIHHHHHHMELRVGGAKPSDNSPAASKGFSDPLDSHGVPGRSKQYLIHSAFTGTIGGVAMAYVDWAIKGPKIASCSCDYGCPCEFNGKPTEGLCEGLECMLIEEGWFGDLRLDGLKVAAVYRWPGPVHEGGGVVRGFFDANADQAQIDALFTILGGKEQEPTTVFNIYGSTIAQELEPIFAPIEFHSDIEKRTGGFRIDGHLELELEPIRNPVTGAPHRARIVLPEGFEFRQAEIASGTFNANGEIAMGRQKRYGALWRAAYGPYGIIEE” the “soluble on expression in E. coli” value was “not soluble”.
With “MGSDKIHHHHHHMENIESSFIDLPNPRKDIEDLQPYSAPLEGRRNLLRLDFNENTIGPSPLVIKSLREISRDEISAYPEYSGLKEKVVESLIKKNSNVNINSSEVGIFNGVDAAINAIFHAYGNFDDLMLTTLPTFGYYTPCAQMRGMQIKAIPYEGEGFQYPFDSICEFLTQNNPKILLICNPNNPTGTRLSPERIIEISKLSSKTLVVVDELYEAFTGDSVLPFLNFQTTPNLVVLRSLSKTAGLASLRIGFAIGHSKVINIVNRVTGPYDVNSFAVIAAFAALNDQSYIDSYVQEVLEARNWIKDQFEKHHVKHHIDGGNYFLLWPKSKPQLVEQKLKSSGILIRNMDKKKNLKGSIRVSIGTIDQMKRFWSAFRIVDEV” the “soluble on expression in E. coli” value was “not soluble”.
